We go through one molecule from article PMC3869376, “Inflammation produces catecholamine resistance in obesity via activation of PDE3B by the protein kinases IKKε and TBK1” (eLife, 2013).

The assay deals with T1, HA-PDE3B (human) phosphorylated by co-expressed Flag-TBK1 (human, UniProt Q13370 1-1112, phosphorylated by co-expressed TBK1; serines 22, 299, 318, 381, 463, 467 and 503 found phosphorylated by LC-MS/MS (HA-PDE3B from Cos-1 cells)).
T1 construct: Phosphodiesterase 3B (PDE3B), human cDNA (from Dr Morris Birnbaum); The phosphorylation sites were mapped in Cos-1 cells; also called phosphorylated PDE3B; the wild-type protein; source: HEK293T, transfected together with Flag-TBK1, in lysate; immunoprecipitated for the overlay
Nature of the assay: pull-down; GST or GST-14-3-3β on glutathione beads incubated 1.5 hr at 4°C with cleared lysates of HEK293T cells co-expressing HA-PDE3B and Flag-TBK1 or K38A; PD buffer 15 mM Tris pH 7.5, 150 mM NaCl, 0.5% NP-40, 1 mM DTT. To be noted: one partner purified.

T1 sequence (Q13370 whole entry): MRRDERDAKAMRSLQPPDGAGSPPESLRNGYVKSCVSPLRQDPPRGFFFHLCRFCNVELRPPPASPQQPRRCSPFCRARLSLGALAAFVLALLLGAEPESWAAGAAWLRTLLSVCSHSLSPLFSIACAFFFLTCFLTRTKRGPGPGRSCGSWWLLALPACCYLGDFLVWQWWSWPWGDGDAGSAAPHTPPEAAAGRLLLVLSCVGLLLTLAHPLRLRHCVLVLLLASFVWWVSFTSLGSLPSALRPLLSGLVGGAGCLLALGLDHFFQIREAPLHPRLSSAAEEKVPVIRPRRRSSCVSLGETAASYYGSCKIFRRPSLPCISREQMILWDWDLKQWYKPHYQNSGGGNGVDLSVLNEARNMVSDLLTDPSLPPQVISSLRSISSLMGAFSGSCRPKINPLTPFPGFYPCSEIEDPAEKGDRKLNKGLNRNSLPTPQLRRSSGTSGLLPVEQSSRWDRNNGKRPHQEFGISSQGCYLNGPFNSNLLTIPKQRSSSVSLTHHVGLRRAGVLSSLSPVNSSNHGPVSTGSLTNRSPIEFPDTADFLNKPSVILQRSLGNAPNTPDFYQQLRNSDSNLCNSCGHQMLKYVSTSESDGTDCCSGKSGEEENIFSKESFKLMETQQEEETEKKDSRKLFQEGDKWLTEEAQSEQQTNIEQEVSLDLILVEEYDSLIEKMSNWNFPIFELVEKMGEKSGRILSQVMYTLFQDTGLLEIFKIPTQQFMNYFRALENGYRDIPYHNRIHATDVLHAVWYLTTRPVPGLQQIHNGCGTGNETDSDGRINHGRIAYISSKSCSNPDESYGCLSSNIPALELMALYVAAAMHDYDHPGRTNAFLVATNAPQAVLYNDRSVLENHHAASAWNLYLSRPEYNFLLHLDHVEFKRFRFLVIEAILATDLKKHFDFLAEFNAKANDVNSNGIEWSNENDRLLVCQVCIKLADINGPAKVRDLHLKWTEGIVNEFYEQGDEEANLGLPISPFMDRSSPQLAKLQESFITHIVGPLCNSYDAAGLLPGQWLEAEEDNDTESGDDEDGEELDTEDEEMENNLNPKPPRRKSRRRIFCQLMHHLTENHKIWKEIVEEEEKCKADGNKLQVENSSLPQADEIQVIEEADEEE

B1: GST-14-3-3β fusion protein (natural protein, human, UniProt P31946 1-246, looked up)
chain: MTMDKSELVQKAKLAEQAERYDDMAAAMKAVTEQGHELSNEERNLLSVAYKNVVGARRSSWRVISSIEQKTERNEKKQQMGKEYREKIEAELQDICNDVLELLDKYLIPNATQPESKVFYLKMKGDYFRYLSEVASGDNKQTTVSNSQQAYQEAFEISKKEMQPTHPIRLGLALNFSVFYYEILNSPEKACSLAKTAFDEAIAELDTLNEESYKDSTLIMQLLRDNLTLWTSENQGDEGDAGEGEN
modifications: DIG-labelled (DIG-NHS) in the overlay assay only
notes: 14-3-3β, human cDNA (from Dr Ken Inoki) subcloned into pGEX-4T-1; source: eluted with glutathione for the overlay
On to B1, for which the binding result was “binds”.
